± gives the uncertainty stated by the source.
Assay: self-splicing fitness, log relative to wild type (ln ratio); higher = more splicing; Tetrahymena group I intron in knt gene, E. coli kanamycin selection, DiMSum; sequences stand for … in CUCUCU…GGAGGGAAAAGUUAUCAGGCAUGCACCUGGUAGCUAGUCUUUAAACCAAUAGAUUGCAUCGGUUUAAAAGGCAAGACCGUCAAAUUGCGGGAAAGGGGUCAACAGCCGUUCAGUACCAAGUCUCAGGGGAAACUUUGAGAUGGCCUUGCAAAGGGUAUGGUAAUAAGCUGACGGACAUGGUCCUAACCACGCAGCCAAGUCCUAAGUCAACAGAUCUUCUGUUGAUAUGGAUGCAGUUCACAGACUAAAUGUCGGUCGGGGAAGAUGUAUUCUUCUCAUAAGAUAUAGUCGGACCUCUCCUUAAUGGGAGCUAGCGGAUGAAGUGAUGCAACACUGGAGCCGCUGGGAACUAAUUUGUAUGCGAAAGUAUAUUGAUUAGUUUUGGAGUACUCGUGGUCG
Summary of the method: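 Library with all eight P1ex-region intron nucleotides randomised, intron inside the knt kanamycin-resistance gene on pET-22b(+), in E. coli BL21(DE3). Cells grew overnight at 37°C or 30°C on LB agar with or without 25 μg/mL kanamycin (plus 100 μg/mL carbenicillin, 50 μM IPTG, 0.2% rhamnose), in six replicate transformations. Pooled colonies were amplicon-sequenced on Illumina HiSeq 2500. DiMSum fitness is the error-weighted combination of wild-type-normalised replicate fold changes, kanamycin versus none.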

| Sequence | self-splicing fitness (ln) (30 °C) | self-splicing fitness (ln) (37 °C) |
| --- | --- | --- |
| GUUAAGCAAUAUUACGCAAG | -1.84 ± 0.18 | -1.71 ± 0.23 |
| CGGCAGCAAUAUUACGAUGG | -0.549 ± 0.083 | -0.741 ± 0.093 |
| AAAUAGCAAUAUUACGCGGA | -1.9 ± 0.12 | -0.348 ± 0.081 |
| UCUAAGCAAUAUUACGAAGA | -1.29 ± 0.14 | -0.678 ± 0.13 |
| UCAUAGCAAUAUUACGAGAA | -2.05 ± 0.3 | -2.55 ± 0.36 |
| GCCGAGCAAUAUUACGUAGA | -2.74 ± 0.13 | -2.07 ± 0.14 |
| CAUGAGCAAUAUUACGGGAA |  | -1.66 ± 0.25 |
| CCAGAGCAAUAUUACGAACG | -0.512 ± 0.081 | 0.191 ± 0.1 |
| UCAAAGCAAUAUUACGCUGA | -3.43 ± 0.29 | -1.62 ± 0.23 |
| GUGCAGCAAUAUUACGUCUU | -1.33 ± 0.083 | -0.0365 ± 0.11 |
| GAAGAGCAAUAUUACGGGUA | -2.6 ± 0.19 | -1.89 ± 0.15 |
| CACGAGCAAUAUUACGAACG | -0.211 ± 0.12 | 0.033 ± 0.14 |
| AGUAAGCAAUAUUACGGUAG | -3.89 ± 0.23 | -3.44 ± 0.29 |
| GUGAAGCAAUAUUACGUGCC | -1.92 ± 0.32 | -1.32 ± 0.36 |
| UGUCAGCAAUAUUACGGAGG | -1.68 ± 0.072 | -0.948 ± 0.097 |
| UAGAAGCAAUAUUACGUGUG | -0.994 ± 0.069 | -0.74 ± 0.084 |
| AGUAAGCAAUAUUACGAAGG | -3.7 ± 0.2 | -2.07 ± 0.26 |
| AAGUAGCAAUAUUACGACAU | 0.0523 ± 0.012 | -0.0429 ± 0.033 |
| UGAGAGCAAUAUUACGGGCA | -0.578 ± 0.12 | -0.806 ± 0.17 |
| GCUGAGCAAUAUUACGAUGA | -1.11 ± 0.13 | -1.07 ± 0.15 |
| UUUCAGCAAUAUUACGGAGU | -2.8 ± 0.28 | -1.64 ± 0.38 |
| GACCAGCAAUAUUACGUAAG | -1.55 ± 0.052 | -0.817 ± 0.076 |
| CCGGAGCAAUAUUACGCCAG | -3.49 ± 0.2 | -2.31 ± 0.24 |
| GCACAGCAAUAUUACGUCCU | -0.289 ± 0.072 | 0.244 ± 0.094 |

| Sequence | self-splicing fitness (ln) (30 °C) | self-splicing fitness (ln) (37 °C) |
| --- | --- | --- |
| GGAAAGCAAUAUUACGGGUG | -1.91 ± 0.14 | -1.78 ± 0.15 |
| UUUUAGCAAUAUUACGUUCG | -0.683 ± 0.11 | -1.34 ± 0.12 |
| UGUGAGCAAUAUUACGUCGU | -2.1 ± 0.3 |  |
| CCUAAGCAAUAUUACGAAAC | -3.48 ± 0.33 |  |
| AUAAAGCAAUAUUACGUAGC | -3.74 ± 0.27 | -1.26 ± 0.2 |
| GACAAGCAAUAUUACGGCCC | -0.324 ± 0.16 | 0.203 ± 0.28 |
| UAGAAGCAAUAUUACGCUUA | -1.9 ± 0.15 | -0.832 ± 0.14 |
| AAAAAGCAAUAUUACGGGUU | -1.38 ± 0.075 | -1.37 ± 0.11 |
| UACAAGCAAUAUUACGGCGC | -1.51 ± 0.085 | -0.801 ± 0.099 |
| AUGAAGCAAUAUUACGUGUC | -2.97 ± 0.28 | -2.26 ± 0.34 |
| CGUGAGCAAUAUUACGCCUA | -1.86 ± 0.25 | -0.88 ± 0.36 |
| GCUUAGCAAUAUUACGUGCA | -1.11 ± 0.11 | -0.319 ± 0.13 |
| GAUAAGCAAUAUUACGGUCA | -1.71 ± 0.12 | -0.711 ± 0.11 |
| GCAUAGCAAUAUUACGCCCG | -1.24 ± 0.32 | -0.11 ± 0.32 |
| CGAUAGCAAUAUUACGGGUA | -3.87 ± 0.4 | -2.64 ± 0.2 |
| GGCCAGCAAUAUUACGAUUG | -3.73 ± 0.2 | -1.74 ± 0.16 |
| UGAUAGCAAUAUUACGAGUG | -1.14 ± 0.084 | -0.545 ± 0.12 |
| CCUCAGCAAUAUUACGCUCG | -2.8 ± 0.16 | -2.96 ± 0.24 |
| CUCUAGCAAUAUUACGUUGA | -2.49 ± 0.27 | -3.81 ± 0.36 |
| AUCCAGCAAUAUUACGUCCG | -2.45 ± 0.17 | -1.04 ± 0.15 |
| ACCUAGCAAUAUUACGAAGA | -2.01 ± 0.19 | -1.77 ± 0.13 |
| CCGAAGCAAUAUUACGAUAG | -0.89 ± 0.061 | -0.284 ± 0.08 |
| GUUCAGCAAUAUUACGACUU | -0.0631 ± 0.073 | -0.409 ± 0.079 |
| UAUAAGCAAUAUUACGAGCA | -0.842 ± 0.23 | -0.234 ± 0.18 |
